# In patent US20180045741:
# B1: PINK1-3x Flag isolated from CCCP-treated cells (protein)
# chain: MAVRQALGRGLQLGRALLLRFTGKPGRAYGLGRPGPAAGCVRGERPGWAAGPGAEPRRVGLGLPNRLRFFRQSVAGLAARLQRQFVVRAWGCAGPCGRAVFLAFGLGLGLIEEKQAESRRAVSACQEIQAIFTQKSKPGPDPLDTRRLQGFRLEEYLIGQSIGKGCSAAVYEATMPTLPQNLEVTKSTGLLPGRGPGTSAPGEGQERAPGAPAFPLAIKMMWNISAGSSSEAILNTMSQELVPASRVALAGEYGAVTYRKSKRGPKQLAPHPNIIRVLRAFTSSVPLLPGALVDYPDVLPSRLHPEGLGHGRTLFLVMKNYPCTLRQYLCVNTPSPRLAAMMLLQLLEGVDHLVQQGIAHRDLKSDNILVELDPDGCPWLVIADFGCCLADESIGLQLPFSSWYVDRGGNGCLMAPEVSTARPGPRAVIDYSKADAWAVGAIAYEIFGLVNPFYGQGKAHLESRSYQEAQLPALPESVPPDVRQLVRALLQREASKRPSARVAANVLHLSLWGEHILALKNLKLDKMVGWLLQQSAATLLANRLTEKCCVETKMKMLFLANLECETLCQAALLLCSWRAAL
# Biological target: unphosphorylated ubiquitin
protein,measurement,value
B1,phosphorylation of ubiquitin (Phos-tag assay),PINK1 isolated from CCCP-treated cells phosphorylates ubiquitin
